Experimental data reported in article PMC9864931 (Vaccines, 2022).

B1: mAb WRAIR-2125 (antibody, V domains shown)
VH: EVQLVESGGGVVQPGRSLRLSCAASGFTFSSYGMHWVRQAPGKGLEWVAVISYDGSNKYYADSVKGRFTISRDNSKNTLSLQMNSLRPEDTAVYYCAKDSPYYYDSSGYYPGYFQDWGQGSLVTVSS
VL: DIQMTQSPSSLSASIGDRVTITCRASQTISDYLNWYQQKPGKAPNLLIYAASTLQSGVPSRFSGSGSGTDFTLTISSLQPEDFATYYCQQSYITPRTFGQGTKVEIK
B2: mAb WRAIR-2173 (antibody, V domains shown)
VH: QVQLQESGPGLVKPSETLSLTCSVSGDSISSSDYSWGWIRQPPGKGLEWIGTIYYIKNTYYNPSLRSRVTLSVDTSKNLFSLKLSSVTAADTAVYYCARERPPFDVVVVPAARPYNWFDPWGLGTLVIVSS
VL: QSVLMQPPSVSGAPGQRVTISCTGSSSNIGAGYDVHWYQQLPGTAPKLLIYGNNNRPSGVPDRFSGSKSGTSASLAITGLQADDEADYYCQSYDSSLSGSKVFGGGTKLTVL

Legend:
[1] = target: E. coli-produced Wuhan-Hu1 RBD (receptor binding domain of the SARS-CoV-2 spike protein, a.a. 319-542) (SARS-CoV-2 (Wuhan-Hu1), UniProt P0DTC2); experiment: BLI; settings: both partners purified
[2] = target: mammalian cell-expressed Wuhan-Hu1 RBD reference standard (SARS-CoV-2 (Wuhan-Hu1), UniProt P0DTC2); experiment: BLI; settings: both partners purified

Binder | binding result [1] | binding result [2]
B1 | binds | binds
B2 | binds | –
